pEC50: −log10 of the molar value.
Assays:
[1] = biological target: Human DLL3 full-length protein (human); test: FACS on H1184 cells
[2] = biological target: Human DLL3 full-length protein (human); test: cell-based or functional assay
[3] = biological target: Cynomolgus monkey DLL3 full-length protein (cynomolgus monkey); test: FACS on cynoDLL3/CHO-s cells

BI-764532 (antibody)
pEC50 [1]: 8.40 | Emax (geometric MFI) [1]: 1620 | IC50 (nM), cell killing caused by endocytosis of antibody (DT3C, DMS53/DLL3 cells) [2]: 3.27 nM | Imax, cell killing caused by endocytosis of antibody (DT3C, DMS53/DLL3 cells) [2]: 86.5 | pEC50 [3]: 8.47 | Emax (geometric MFI) [3]: 963
